# From paper PMC9482650, “Quantitative fragmentomics allow affinity mapping of interactomes” (Nature Communications, 2022)
# Biological target: AHNAK1, Q09666
# Experiment: holdup assay
# Design: key: below the threshold = too weak to quantify, mostly under pKd 3.1 to 4
# Settings: plain residues with an end cap or a label only (N-terminal biotin on a linker: ado-ado)
row,Binder,pKd
1,"VKQYADVEGF [HNRNPK, P61978;P61978-2]",below the threshold
2,"SKQFDKNAYV [CLDN10, P78369]",below the threshold

# Biological target: TJP1_2, Q07157
# Experiment: holdup assay
# Design: key: below the threshold = too weak to quantify, mostly under pKd 3.1 to 4
# Settings: plain residues with an end cap or a label only (N-terminal biotin on a linker: ado-ado)
# TJP1_2, Q07157, sequence (Q07157 181-274): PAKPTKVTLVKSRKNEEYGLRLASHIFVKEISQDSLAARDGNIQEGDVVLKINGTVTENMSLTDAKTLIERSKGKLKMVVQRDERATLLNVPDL
row,Binder,pKd
1,"VKQYADVEGF [HNRNPK, P61978;P61978-2]",below the threshold
2,"SKQFDKNAYV [CLDN10, P78369]",3.61

# Biological target: LIMK2, P53671
# Experiment: holdup assay
# Design: key: below the threshold = too weak to quantify, mostly under pKd 3.1 to 4
# Settings: plain residues with an end cap or a label only (N-terminal biotin on a linker: ado-ado)
# LIMK2, P53671, sequence (P53671 143-248): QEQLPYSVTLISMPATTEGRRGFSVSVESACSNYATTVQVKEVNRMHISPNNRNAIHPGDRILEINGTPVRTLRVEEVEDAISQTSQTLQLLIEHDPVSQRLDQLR
row,Binder,pKd
1,"VKQYADVEGF [HNRNPK, P61978;P61978-2]",below the threshold
2,"SKQFDKNAYV [CLDN10, P78369]",below the threshold

# Biological target: T1, DVL3, Q92997
# T1 sequence (Q92997 244-331, limits assumed, looked up): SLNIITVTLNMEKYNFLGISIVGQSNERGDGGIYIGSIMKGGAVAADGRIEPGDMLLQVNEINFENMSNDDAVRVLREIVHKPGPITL
# Experiment: holdup assay
# Design: key: below the threshold = too weak to quantify, mostly under pKd 3.1 to 4
# Settings: plain residues with an end cap or a label only (N-terminal biotin on a linker: ado-ado)
row,Binder,pKd
1,"VKQYADVEGF [HNRNPK, P61978;P61978-2]",below the threshold
2,"SKQFDKNAYV [CLDN10, P78369]",below the threshold

# Biological target: T2, HTRA4, P83105
# T2 sequence (P83105 378-476, limits assumed, looked up): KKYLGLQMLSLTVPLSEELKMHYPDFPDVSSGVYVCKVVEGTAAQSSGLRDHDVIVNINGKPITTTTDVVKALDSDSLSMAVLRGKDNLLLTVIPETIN
# Experiment: holdup assay
# Design: key: below the threshold = too weak to quantify, mostly under pKd 3.1 to 4
# Settings: plain residues with an end cap or a label only (N-terminal biotin on a linker: ado-ado)
row,Binder,pKd
1,"VKQYADVEGF [HNRNPK, P61978;P61978-2]",below the threshold
2,"SKQFDKNAYV [CLDN10, P78369]",below the threshold

# Biological target: T3, FRMPD1, Q5SYB0
# T3 sequence (Q5SYB0 52-145, limits assumed, looked up): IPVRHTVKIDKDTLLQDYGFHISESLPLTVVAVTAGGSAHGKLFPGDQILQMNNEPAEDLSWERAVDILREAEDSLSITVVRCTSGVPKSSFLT
# Experiment: holdup assay
# Design: key: below the threshold = too weak to quantify, mostly under pKd 3.1 to 4
# Settings: plain residues with an end cap or a label only (N-terminal biotin on a linker: ado-ado)
row,Binder,pKd
1,"VKQYADVEGF [HNRNPK, P61978;P61978-2]",below the threshold
2,"SKQFDKNAYV [CLDN10, P78369]",below the threshold

# Biological target: GRIP2_3, Q9C0E4
# Experiment: holdup assay
# Design: key: below the threshold = too weak to quantify, mostly under pKd 3.1 to 4
# Settings: plain residues with an end cap or a label only (N-terminal biotin on a linker: ado-ado)
# GRIP2_3, Q9C0E4, sequence (Q9C0E4 238-339): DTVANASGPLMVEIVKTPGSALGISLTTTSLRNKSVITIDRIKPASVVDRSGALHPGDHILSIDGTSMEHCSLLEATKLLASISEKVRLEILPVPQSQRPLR
row,Binder,pKd
1,"VKQYADVEGF [HNRNPK, P61978;P61978-2]",below the threshold
2,"SKQFDKNAYV [CLDN10, P78369]",below the threshold

# Biological target: Inadl_3, Q8NI35
# Experiment: holdup assay
# Design: key: below the threshold = too weak to quantify, mostly under pKd 3.1 to 4
# Settings: plain residues with an end cap or a label only (N-terminal biotin on a linker: ado-ado)
# Inadl_3, Q8NI35, sequence (Q8NI35 359-469): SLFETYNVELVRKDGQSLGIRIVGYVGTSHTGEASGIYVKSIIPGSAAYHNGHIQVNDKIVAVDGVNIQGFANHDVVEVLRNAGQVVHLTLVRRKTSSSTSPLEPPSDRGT
row,Binder,pKd
1,"VKQYADVEGF [HNRNPK, P61978;P61978-2]",below the threshold
2,"SKQFDKNAYV [CLDN10, P78369]",below the threshold

# Biological target: ARHGEF12, Q9NZN5-2
# Experiment: holdup assay
# Design: key: below the threshold = too weak to quantify, mostly under pKd 3.1 to 4
# Settings: plain residues with an end cap or a label only (N-terminal biotin on a linker: ado-ado)
# ARHGEF12, Q9NZN5-2, sequence (Q9NZN5 other isoform, or with tags, fused parts or gaps): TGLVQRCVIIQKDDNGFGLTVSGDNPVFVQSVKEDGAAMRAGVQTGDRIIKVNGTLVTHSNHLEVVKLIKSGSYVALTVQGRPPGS
row,Binder,pKd
1,"VKQYADVEGF [HNRNPK, P61978;P61978-2]",below the threshold
2,"SKQFDKNAYV [CLDN10, P78369]",3.66

# Biological target: T4, APBA2_1, Q99767
# T4 sequence (Q99767 563-664, limits assumed, looked up): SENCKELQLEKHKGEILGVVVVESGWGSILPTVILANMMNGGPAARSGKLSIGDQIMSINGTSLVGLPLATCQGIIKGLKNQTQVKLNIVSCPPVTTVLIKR
# Experiment: holdup assay
# Design: key: below the threshold = too weak to quantify, mostly under pKd 3.1 to 4
# Settings: plain residues with an end cap or a label only (N-terminal biotin on a linker: ado-ado)
row,Binder,pKd
1,"VKQYADVEGF [HNRNPK, P61978;P61978-2]",below the threshold
2,"SKQFDKNAYV [CLDN10, P78369]",below the threshold

# Biological target: T5, GRIP1_7, Q9Y3R0
# T5 sequence (Q9Y3R0 999-1096, limits assumed, looked up): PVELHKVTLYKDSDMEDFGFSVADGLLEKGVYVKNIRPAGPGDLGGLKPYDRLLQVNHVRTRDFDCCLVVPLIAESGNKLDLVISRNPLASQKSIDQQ
# Experiment: holdup assay
# Design: key: below the threshold = too weak to quantify, mostly under pKd 3.1 to 4
# Settings: plain residues with an end cap or a label only (N-terminal biotin on a linker: ado-ado)
row,Binder,pKd
1,"VKQYADVEGF [HNRNPK, P61978;P61978-2]",below the threshold
2,"SKQFDKNAYV [CLDN10, P78369]",below the threshold

# Biological target: SCRIB_1, Q14160
# Experiment: holdup assay
# Design: key: below the threshold = too weak to quantify, mostly under pKd 3.1 to 4
# Settings: plain residues with an end cap or a label only (N-terminal biotin on a linker: ado-ado)
# SCRIB_1, Q14160, sequence (Q14160 718-814): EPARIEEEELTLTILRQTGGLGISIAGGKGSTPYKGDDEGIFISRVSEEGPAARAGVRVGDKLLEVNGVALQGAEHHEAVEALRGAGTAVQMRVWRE
row,Binder,pKd
1,"VKQYADVEGF [HNRNPK, P61978;P61978-2]",below the threshold
2,"SKQFDKNAYV [CLDN10, P78369]",below the threshold

# Biological target: T6, SNTG1, Q9NSN8
# T6 sequence (Q9NSN8 52-150, limits assumed, looked up): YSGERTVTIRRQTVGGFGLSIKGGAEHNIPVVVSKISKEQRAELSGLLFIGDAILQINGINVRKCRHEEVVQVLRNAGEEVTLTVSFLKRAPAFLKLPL
# Experiment: holdup assay
# Design: key: below the threshold = too weak to quantify, mostly under pKd 3.1 to 4
# Settings: plain residues with an end cap or a label only (N-terminal biotin on a linker: ado-ado)
row,Binder,pKd
1,"VKQYADVEGF [HNRNPK, P61978;P61978-2]",below the threshold
2,"SKQFDKNAYV [CLDN10, P78369]",below the threshold

# Biological target: MAST2, Q6P0Q8
# Experiment: holdup assay
# Design: key: below the threshold = too weak to quantify, mostly under pKd 3.1 to 4
# Settings: plain residues with an end cap or a label only (N-terminal biotin on a linker: ado-ado)
# MAST2, Q6P0Q8, sequence (Q6P0Q8 1099-1202): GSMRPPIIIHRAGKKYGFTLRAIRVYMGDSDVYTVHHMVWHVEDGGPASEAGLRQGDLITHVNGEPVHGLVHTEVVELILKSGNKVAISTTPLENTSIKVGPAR
row,Binder,pKd
1,"SKQFDKNAYV [CLDN10, P78369]",4.02

# Biological target: T7, CARD11, Q9BXL7
# T7 sequence (Q9BXL7 662-765, limits assumed, looked up): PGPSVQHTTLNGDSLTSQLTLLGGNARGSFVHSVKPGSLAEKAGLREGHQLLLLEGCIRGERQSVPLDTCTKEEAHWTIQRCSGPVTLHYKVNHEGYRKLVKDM
# Experiment: holdup assay
# Design: key: below the threshold = too weak to quantify, mostly under pKd 3.1 to 4
# Settings: plain residues with an end cap or a label only (N-terminal biotin on a linker: ado-ado)
row,Binder,pKd
1,"VKQYADVEGF [HNRNPK, P61978;P61978-2]",below the threshold
2,"SKQFDKNAYV [CLDN10, P78369]",below the threshold

# Biological target: T8, APBA2_2, Q99767
# T8 sequence (Q99767 654-744, limits assumed, looked up): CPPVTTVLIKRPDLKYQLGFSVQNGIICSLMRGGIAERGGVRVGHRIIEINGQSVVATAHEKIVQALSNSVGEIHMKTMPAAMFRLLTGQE
# Experiment: holdup assay
# Design: key: below the threshold = too weak to quantify, mostly under pKd 3.1 to 4
# Settings: plain residues with an end cap or a label only (N-terminal biotin on a linker: ado-ado)
row,Binder,pKd
1,"VKQYADVEGF [HNRNPK, P61978;P61978-2]",below the threshold
2,"SKQFDKNAYV [CLDN10, P78369]",below the threshold

# Biological target: T9, MPP2, Q14168
# T9 sequence (Q14168 180-250, limits assumed, looked up): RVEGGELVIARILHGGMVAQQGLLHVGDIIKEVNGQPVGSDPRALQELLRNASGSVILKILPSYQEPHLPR
# Experiment: holdup assay
# Design: key: below the threshold = too weak to quantify, mostly under pKd 3.1 to 4
# Settings: plain residues with an end cap or a label only (N-terminal biotin on a linker: ado-ado)
row,Binder,pKd
1,"VKQYADVEGF [HNRNPK, P61978;P61978-2]",below the threshold
2,"SKQFDKNAYV [CLDN10, P78369]",below the threshold

# Biological target: T10, TIAM2, Q8IVF5
# T10 sequence (Q8IVF5 885-986, limits assumed, looked up): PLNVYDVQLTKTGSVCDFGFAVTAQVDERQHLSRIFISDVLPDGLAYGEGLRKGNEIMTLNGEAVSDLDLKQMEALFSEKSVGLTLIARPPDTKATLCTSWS
# Experiment: holdup assay
# Design: key: below the threshold = too weak to quantify, mostly under pKd 3.1 to 4
# Settings: plain residues with an end cap or a label only (N-terminal biotin on a linker: ado-ado)
row,Binder,pKd
1,"VKQYADVEGF [HNRNPK, P61978;P61978-2]",3.94
2,"SKQFDKNAYV [CLDN10, P78369]",below the threshold

# Biological target: T11, PDZD7_3, Q9H5P4
# T11 sequence (Q9H5P4 857-944, limits assumed, looked up): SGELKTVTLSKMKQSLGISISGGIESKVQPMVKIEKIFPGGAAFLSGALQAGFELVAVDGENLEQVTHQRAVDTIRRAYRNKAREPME
# Experiment: holdup assay
# Design: key: below the threshold = too weak to quantify, mostly under pKd 3.1 to 4
# Settings: plain residues with an end cap or a label only (N-terminal biotin on a linker: ado-ado)
row,Binder,pKd
1,"VKQYADVEGF [HNRNPK, P61978;P61978-2]",below the threshold
2,"SKQFDKNAYV [CLDN10, P78369]",below the threshold

# Biological target: T12, MPP7, Q5T2T1
# T12 sequence (Q5T2T1 134-230, limits assumed, looked up): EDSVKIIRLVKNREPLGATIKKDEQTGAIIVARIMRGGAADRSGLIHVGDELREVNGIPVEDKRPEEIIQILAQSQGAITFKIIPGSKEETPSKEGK
# Experiment: holdup assay
# Design: key: below the threshold = too weak to quantify, mostly under pKd 3.1 to 4
# Settings: plain residues with an end cap or a label only (N-terminal biotin on a linker: ado-ado)
row,Binder,pKd
1,"VKQYADVEGF [HNRNPK, P61978;P61978-2]",below the threshold
2,"SKQFDKNAYV [CLDN10, P78369]",below the threshold

# Biological target: T13, MPDZ_12, O75970
# T13 sequence (O75970 1857-1958, limits assumed, looked up): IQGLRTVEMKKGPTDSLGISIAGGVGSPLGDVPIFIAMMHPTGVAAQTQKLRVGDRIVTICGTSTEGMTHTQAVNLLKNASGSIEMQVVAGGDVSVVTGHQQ
# Experiment: holdup assay
# Design: key: below the threshold = too weak to quantify, mostly under pKd 3.1 to 4
# Settings: plain residues with an end cap or a label only (N-terminal biotin on a linker: ado-ado)
row,Binder,pKd
1,"VKQYADVEGF [HNRNPK, P61978;P61978-2]",below the threshold
2,"SKQFDKNAYV [CLDN10, P78369]",below the threshold

# Biological target: T14, NHERF3_3, Q5T2W1
# T14 sequence (Q5T2W1 238-333, limits assumed, looked up): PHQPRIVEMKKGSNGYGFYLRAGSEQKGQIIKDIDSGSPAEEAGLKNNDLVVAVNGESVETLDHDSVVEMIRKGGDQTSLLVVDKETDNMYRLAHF
# Experiment: holdup assay
# Design: key: below the threshold = too weak to quantify, mostly under pKd 3.1 to 4
# Settings: plain residues with an end cap or a label only (N-terminal biotin on a linker: ado-ado)
row,Binder,pKd
1,"VKQYADVEGF [HNRNPK, P61978;P61978-2]",below the threshold
2,"SKQFDKNAYV [CLDN10, P78369]",below the threshold

# Biological target: T15, LNX2_2, Q8N448
# T15 sequence (Q8N448 334-432, limits assumed, looked up): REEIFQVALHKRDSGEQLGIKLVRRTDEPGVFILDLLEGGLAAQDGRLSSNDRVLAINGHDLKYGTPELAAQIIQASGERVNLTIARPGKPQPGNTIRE
# Experiment: holdup assay
# Design: key: below the threshold = too weak to quantify, mostly under pKd 3.1 to 4
# Settings: plain residues with an end cap or a label only (N-terminal biotin on a linker: ado-ado)
row,Binder,pKd
1,"VKQYADVEGF [HNRNPK, P61978;P61978-2]",below the threshold
2,"SKQFDKNAYV [CLDN10, P78369]",4.1
